# Test results taken from patent US8097425.
# How the values were obtained:
# hybridoma 2.11 = experiment: competition ELISA; signal of 2.11 on plate-bound Pep2-0 (competitor) with this free peptide; low = inhibited
# hybridoma 2.03 = experiment: competition ELISA; signal of 2.03 on plate-bound Pep2-0 (competitor) with this free peptide; low = inhibited
Binder,Maximum Reactivity (hybridoma 2.11),Maximum Reactivity (hybridoma 2.03)
Ac-HSLFHPEDTG-biotin [Pep1-1],1.48,0.382
Ac-SLFHPEDTGQ-biotin [Pep1-2],1.49,0.329
